According to publication PMC10989989, “The archaeal KEOPS complex possesses a functional Gon7 homolog and has an essential function independent of the cellular t^6A modification level” (mLife, 2023):

T1: His-tagged SisPcc1 co-expressed with no-tagged SisKae1 in E. coli (Saccharolobus islandicus REY15A, UniProt F0NF65 1-91)
T1 construct: Pcc1 of Saccharolobus islandicus REY15A, encoded by SiRe_1278; Pcc1 is insoluble when expressed alone in E. coli; also called His‐Pcc1; source: E. coli BL21(DE3)-Codon plus-RIL, pRSF-Duet1, co-expressed with no-tagged SisKae1; pulled down and co-purified (Ni-NTA, HiTrap Q FF, Superdex 200)
T1 sequence (looked up): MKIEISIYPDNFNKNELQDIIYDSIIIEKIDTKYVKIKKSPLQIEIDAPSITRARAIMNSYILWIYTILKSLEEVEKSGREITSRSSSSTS

T2: Kae1‐Pcc1 subcomplex (2Kae1:2Pcc1), co-expressed in E. coli (Saccharolobus islandicus REY15A, UniProt F0NFC9 1-331; F0NF65 1-91)
T2 construct: Kae1 of Saccharolobus islandicus REY15A, no tag; Pcc1 of Saccharolobus islandicus REY15A, encoded by SiRe_1278; The preformed complex (chains as m11 and m16) to which Pcc1-like was added; after addition the product is 1:1:1; also called 2Kae1:2Pcc1 subcomplex; Kae1‐Pcc1‐Pcc1‐Kae1; source: E. coli BL21(DE3)-Codon plus-RIL, pRSF-Duet1, no-tagged SisKae1 co-expressed with His-tagged SisPcc1; …
T2 sequence (looked up) 1: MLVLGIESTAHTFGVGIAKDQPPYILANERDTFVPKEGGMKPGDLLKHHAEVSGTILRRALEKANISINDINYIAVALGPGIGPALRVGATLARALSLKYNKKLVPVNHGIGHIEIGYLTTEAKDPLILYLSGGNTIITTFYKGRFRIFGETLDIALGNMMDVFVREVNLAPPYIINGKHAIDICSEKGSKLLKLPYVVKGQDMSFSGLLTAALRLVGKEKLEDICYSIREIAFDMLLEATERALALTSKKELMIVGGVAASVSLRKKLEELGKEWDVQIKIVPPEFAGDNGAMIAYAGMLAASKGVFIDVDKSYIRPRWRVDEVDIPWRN
T2 sequence (looked up) 2: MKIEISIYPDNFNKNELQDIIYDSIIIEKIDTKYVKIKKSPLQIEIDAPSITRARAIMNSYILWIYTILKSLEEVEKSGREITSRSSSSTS


How the values were obtained:
[1] = biological target: T1, His-tagged SisPcc1 co-expressed with …; test: SEC; co-expressed Kae1/Pcc1 subcomplex; Superdex 200 Increase 10/300; 200 mM NaCl, 50 mM Tris-HCl pH 8.0, 5% glycerol; masses from protein standards; conditions: both partners purified
[2] = biological target: Flag-tagged SisKae1 co-expressed with His-tagged SisPcc1-like in E. coli (Saccharolobus islandicus REY15A); test: SEC; co-expressed Kae1/Pcc1-like, Pcc1-like about 10-fold in excess of Kae1; Superdex 200 Increase 10/300; 200 mM NaCl, 50 mM Tris-HCl pH 8.0, 5% glycerol
[3] = biological target: SisKae1 mixed in five-fold excess with SisPcc1-like for SEC (Saccharolobus islandicus REY15A); test: SEC; Kae1 in five-fold excess: 6 μM SisPcc1-like mixed with 30 μM SisKae1, 60°C for 30 min before loading; Superdex 200 Increase 10/300; 200 mM NaCl, 50 mM Tris-HCl pH 8.0, 5% glycerol
[4] = biological target: T2, Kae1‐Pcc1 subcomplex (2Kae1:2Pcc1), …; test: SEC; 1.5-fold Pcc1-like added to the 2Kae1:2Pcc1 subcomplex, 60°C for 30 min before loading; Superdex 200 Increase 10/300; 200 mM NaCl, 50 mM Tris-HCl pH 8.0, 5% glycerol; conditions: both partners purified

Binder	stoichiometry N [1]	stoichiometry N (Pcc1-like per Kae1) [2]	stoichiometry N (Pcc1-like per Kae1) [3]	stoichiometry N [4]
No-tagged SisKae1 from E. coli (natural protein, Saccharolobus islandicus REY15A, UniProt F0NFC9 1-331, looked up, Kae1 of Saccharolobus islandicus REY15A, no tag; Two vectors (pET15b alone; pRSF-Duet1 with His-Pcc1) give the same untagged protein; source: E. coli BL21(DE3)-Codon plus-RIL; alone (pET15b), purified; also co-expressed with His-tagged SisPcc1 (pRSF-Duet1), pulled down and co-purified) MLVLGIESTAHTFGVGIAKDQPPYILANERDTFVPKEGGMKPGDLLKHHAEVSGTILRRALEKANISINDINYIAVALGPGIGPALRVGATLARALSLKYNKKLVPVNHGIGHIEIGYLTTEAKDPLILYLSGGNTIITTFYKGRFRIFGETLDIALGNMMDVFVREVNLAPPYIINGKHAIDICSEKGSKLLKLPYVVKGQDMSFSGLLTAALRLVGKEKLEDICYSIREIAFDMLLEATERALALTSKKELMIVGGVAASVSLRKKLEELGKEWDVQIKIVPPEFAGDNGAMIAYAGMLAASKGVFIDVDKSYIRPRWRVDEVDIPWRN	1 Kae1 per Pcc1 (printed as 2:2)	–	–	–
His-tagged SisPcc1‐like from E. coli (natural protein, Saccharolobus islandicus REY15A, UniProt F0NIH8 1-81, looked up, Pcc1-like (Gon7-like) of Saccharolobus islandicus REY15A, encoded by SiRe_1701; also called His‐SisPcc1‐like; source: E. coli BL21(DE3)-Codon plus-RIL, pRSF-Duet1 (alone, or co-expressed with Flag-tagged SisKae1 or SisPcc1); purified (Ni-NTA, HiTrap Q FF, Superdex 200)) MIELRILSEHEDAELIIRSLNVDNVNLPEGMSIQTKVEGKELEIVIKMRITKPNDLMTVRNTADEILAHIKALQSSFDAIS	–	2	1	1 Kae1:Pcc1:Pcc1-like 1:1:1
